B1: KCNG1 (parent)
chain: LFVTVTAVNLSVSTLPSLREEEEQ
B2: SNAP91 (parent)
chain: FGGSFMAPSPSPVTPAQNNLLQPN

Variants of: B1
Test: protein stability index of a GFP-peptide fusion (GPS, HEK-293T) (PSI 1-6); higher = more stable
Details: c terminus: a fixed tail appended
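Also: lentivirally expressed fusions sorted by FACS into six bins by GFP to DsRed ratio, PSI derived from sequencing read proportions per bin multiplied by bin number.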

Variant | protein stability index
N9P | 1.73
N9Q | 2.65
N9Y | 2.02
N9T | 3.74
N9D | 1.45
N9H | 3.18
E21K | 2.25
E21P | 2.06
E21Y | 3.39
E21V | 1.63
E21R | 2.43
E21N | 3.49
E21G | 1.01
E21H | 2.28
S13Y | 3.08
S13Q | 1.78
S13H | 1.29
S13I | 2.89
S13F | 1.52
S13D | 1.55
S13L | 2.71
F2G | 2.41
F2M | 1.26
F2K | 1.72
F2C | 1.67

Variant | protein stability index
F2L | 1.95
F2T | 1.25
F2A | 2.27
F2P | 4.83
F2Q | 2.09
F2D | 3.99
F2H | 2.19
F2N | 2.27
F2Y | 1.75
F2S | 1.99
F2R | 2.5
V12H | 1.53
V12K | 2.44
V12E | 2.19
V12P | 1.6
V12S | 1.85
V12C | 2.79
V12L | 3.1
V12A | 2.71
V12F | 2.17
V12G | 1.45
V12Q | 1.4
V12Y | 2.08
V12W | 2.35
V12M | 1.47

Variant | protein stability index
V12D | 1.71
V12R | 1.89
V12T | 2.05
A7I | 4.2
A7T | 1.34
A7D | 2.89
A7C | 2.9
A7E | 3.03
A7Q | 2.58
A7P | 1.8
A7H | 2.5
A7M | 2.03
A7Y | 3.4
A7G | 1.5
A7K | 3.01
E22S | 1.89
E22K | 3.13
E22P | 2.31
E22H | 1.61
E22I | 2.19
E22M | 3.4
E22T | 2.14
E22L | 3.04
E22Q | 3.16
T6A | 1.69

Variant | protein stability index
T6P | 3.96
T6N | 2.29
T6R | 1.64
T6D | 3.21
T6E | 1.79
T6G | 1.3
T6S | 2.27
T6L | 1.25
T6H | 1.85
L18W | 3.02
L18N | 2.47
L18S | 3.17
L18Y | 1.35
L18T | 3.48
L18A | 3.29
L18R | 1.57
L18D | 2.05
L18P | 2.48
L18H | 2.87
L18M | 3.35
L18V | 2.17
L18I | 1.62
L18Q | 2.23
E23T | 4.29
E23Y | 2.93

Variant | protein stability index
E23L | 3.24
E23D | 1.71
E23C | 2.7
E23K | 2.12
L15D | 3.09
L15M | 2.51
L15G | 1.72
L15K | 1.62
L15C | 2.81
L15T | 3.77
L15V | 1.76
L15Q | 1.05
L15I | 1.36
L15P | 2.48
L1T | 2.62
L1C | 2.1
L1M | 1.98
L1P | 4.33
L1A | 1.78
L1H | 3.62
L1Y | 1.97
L1F | 1.95
L1G | 3.23
L1Q | 3.71
L1N | 4.05

Variant | protein stability index
L1S | 3.56
L1D | 4.52
L1E | 4.32
L1K | 3.84
L1I | 2.27
L1R | 3.04
R19D | 2.32
R19S | 2.41
R19F | 3.41
R19Q | 1.2
R19K | 3.36
R19E | 1.43
R19N | 1.96
R19V | 1.99
R19C | 2.09
R19H | 1.41
V3Y | 1.92
V3R | 4.5
V3G | 3.53
V3M | 1.75
V3W | 1.91
V3A | 2.67
V3F | 1.65
V3H | 3.75
V3I | 2.67

Variant | protein stability index
V3D | 4.92
V3K | 3.71
V3P | 5.3
V3T | 4.52
V3S | 4.05
V3C | 2.65
V3E | 4.93
V3L | 1.53
V3N | 4.51
L10N | 3.48
L10S | 2.21
L10D | 2.76
L10K | 2.47
L10I | 3.17
L10G | 2.16
L10T | 2.03
L10C | 1.45
L10P | 2.32
L10H | 2.44
L10R | 3.45
L10V | 1.9
L10Q | 3.77
L10F | 3.38
L10W | 2.88
L10M | 2.21

Variant | protein stability index
L10Y | 1.95
S11Y | 4.29
S11G | 1.73
S11R | 2.63
S11E | 1.72
S11M | 3.64
S11P | 2.02
S11H | 1.72
V5M | 2.18
V5S | 3.5
V5A | 2.42
V5Q | 3.94
V5H | 3.52
V5G | 3.99
V5T | 3.16
V5I | 3.56
V5W | 2.3
V5E | 4.46
V5D | 4.51
V5C | 2.1
V5Y | 2.14
V5F | 2.68
V5N | 3.64
V5R | 3.2
V5L | 2.2

Variant | protein stability index
V5P | 4.91
T14S | 1.36
T14M | 2.01
T14D | 1.52
T14W | 2.87
T14V | 2.13
T14Y | 2.34
T14E | 1.99
T14K | 1.77
T14H | 2.56
T14P | 2.61
T14R | 4.33
S17F | 1.79
S17P | 2.55
S17T | 2.22
S17H | 1.26
S17Y | 1.51
S17C | 1.79
S17G | 2.51
S17N | 1.7
S17A | 1.55
S17K | 4.4
S17E | 3.27
V8P | 2.29
V8S | 2.77

Variant | protein stability index
V8Y | 2.15
V8K | 2.15
V8Q | 1.85
V8D | 2.29
V8E | 3.16
V8H | 2.95
V8T | 2.09
V8M | 1.23
V8C | 3.11
V8R | 2.51
V8N | 2.49
V8A | 2.02
P16M | 3.14
P16S | 2.05
P16K | 2.5
P16C | 1.65
P16N | 3.87
P16R | 1.75
P16D | 1.19
T4D | 3.23
T4K | 1.64
T4G | 2.89
T4H | 1.93
T4Y | 3.61
T4S | 1.49

Variant | protein stability index
T4Q | 2.71
T4A | 1.37
T4N | 2.45
T4M | 3.06
T4L | 1.08
T4P | 3.13
T4E | 1.75
E20K | 1.62
E20F | 3.08
E20S | 3.18
E20P | 1.7
E20D | 1.67
E20C | 3.25
E20T | 3.53
Q24Y | 2.27
Q24L | 1.02
Q24N | 2.31
Q24M | 2.66
Q24S | 2.44
Q24E | 1.37
Q24D | 2.28
Q24K | 1.74

Variants of: B2
Test: as above
Details: c terminus: a fixed tail appended

Variant | protein stability index
M6V | 2.08
S9Q | 1.43
S9K | 1.76
T14C | 4.16
T14M | 2.4
T14R | 1.54
T14K | 2.84
T14F | 1.79
T14L | 2.13
T14N | 1.89
T14I | 1.7
F1I | 3.99
G3V | 2.37
G3D | 2.7
P12D | 1.8
P12L | 1.61
P12K | 1.47
P12S | 1.27
P12N | 2.31
P12G | 1.72
P12F | 1.62

Variant | protein stability index
P12E | 1.77
P12Q | 2.21
P12R | 2.17
P15K | 1.83
P15Y | 2.91
P15R | 2.4
P15A | 1.86
P15G | 2.3
P15M | 3.65
P15I | 2.65
P15H | 2.27
P15L | 1.95
P15T | 2.01
P15E | 1.93
P15S | 2.19
P15N | 1.79
S11M | 2.83
S11E | 2.38
P10Y | 2.38
P10G | 2.18
P10F | 2.89

Variant | protein stability index
P10W | 2.51
P10M | 3.19
P10L | 2.55
P10C | 2.45
P10S | 2.49
P10A | 4.52
P10N | 1.51
A7Q | 2.59
A7E | 2.06
A7L | 1.87
P8E | 2.24
P8C | 1.64
P8Q | 2.92
P8M | 4.32
P8L | 3.22
P8R | 1.85
P8S | 2.89
P8N | 2.42
P8D | 2.25
G2Y | 2.53
